According to PMC10542384:

Target: RNF111 (Arkadia) (UniProt Q6ZNA4)
Assay: proximity ligation assay (PLA)
Conditions: ARKL1 KO U2OS cells complemented with HA-ARKL1WT (n = 28), HA-ARKL1SIM* (n = 20) or vector (n = 17); antibodies against HA and RNF111; parent: est. 9.0; read off a plot

Chain of UniProt Q6ZNA4 (Q6ZNA4 whole entry): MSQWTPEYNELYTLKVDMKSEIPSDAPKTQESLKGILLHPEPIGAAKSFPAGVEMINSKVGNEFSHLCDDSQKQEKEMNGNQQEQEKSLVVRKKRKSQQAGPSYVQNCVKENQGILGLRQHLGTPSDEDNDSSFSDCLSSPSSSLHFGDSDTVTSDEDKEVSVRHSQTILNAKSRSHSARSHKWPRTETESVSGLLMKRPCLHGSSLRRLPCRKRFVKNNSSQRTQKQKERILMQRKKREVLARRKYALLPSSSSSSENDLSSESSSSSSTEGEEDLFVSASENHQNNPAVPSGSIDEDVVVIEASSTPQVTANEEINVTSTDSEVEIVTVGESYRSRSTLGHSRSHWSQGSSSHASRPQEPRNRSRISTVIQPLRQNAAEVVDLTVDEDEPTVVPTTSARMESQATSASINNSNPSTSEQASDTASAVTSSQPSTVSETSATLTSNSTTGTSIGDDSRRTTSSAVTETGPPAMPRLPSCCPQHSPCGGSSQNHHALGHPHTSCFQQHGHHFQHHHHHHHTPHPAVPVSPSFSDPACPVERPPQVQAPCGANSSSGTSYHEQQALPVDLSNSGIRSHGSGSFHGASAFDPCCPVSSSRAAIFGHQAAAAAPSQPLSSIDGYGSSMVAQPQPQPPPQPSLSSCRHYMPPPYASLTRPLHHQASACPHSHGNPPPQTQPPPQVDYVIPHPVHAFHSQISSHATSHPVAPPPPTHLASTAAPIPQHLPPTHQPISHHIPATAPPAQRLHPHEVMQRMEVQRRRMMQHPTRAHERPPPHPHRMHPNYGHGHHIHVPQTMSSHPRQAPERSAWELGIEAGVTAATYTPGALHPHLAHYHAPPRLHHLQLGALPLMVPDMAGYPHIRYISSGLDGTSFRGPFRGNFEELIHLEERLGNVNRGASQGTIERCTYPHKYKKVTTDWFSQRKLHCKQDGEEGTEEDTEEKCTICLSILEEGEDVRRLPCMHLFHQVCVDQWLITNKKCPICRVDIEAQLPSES

response (PLA foci per cell): 1
Substance: HA-ARKL1 wild type (from UniProt Q96B23) SIM*
